The results in this text go back to article doi:10.1101/2020.06.21.163824.

The Kd is the constant that tells how readily two partners part at equilibrium.

Test [1] deals with recombinant human TNFα (soluble human TNFα, residues 85-233, C-terminal His tag) (human) (UniProt P01375). Put plainly: ELISA. A general note: An ELISA detects its analyte on a solid surface through an enzyme-linked reagent.
The target in test [2] is rhTNFα labeled in the amine groups (NT-650, NHS-coupling) (human) (UniProt P01375). Put plainly: MST.
Test [3] deals with Adalimumab labeled with NT-647 in the thiol groups (Cys-coupling) (human). Kind of test: MST.

On to Adalimumab (Humira) (antibody), for which, in test [1], the Kd came out at 1.32 nM; the OD50 (antagonist concentration at half-maximal OD), rhTNFα coated at 1,25 µg/ml was 0.641 nM; the OD50 (antagonist concentration at half-maximal OD), rhTNFα coated at 2,5 µg/ml was 0.622 nM. For the same substance, in test [2], the KD of the first phase (Adalimumab 30.5 pM to 7.8 nM) came out at 100 pM and the KD of the second phase (Adalimumab 1.95 to 1 µM) was 21 nM.

Turning to “recombinant human TNFα (soluble human TNFα, residues 85-233, C-terminal His tag) (from UniProt P01375 85-233) (ligand)”, the Kd in test [3] turned out to be 29.6 nM.
